Our source for the improvement of specific lysis, chromium-51 release ADCC, TPC1 cells pretreated with 100 nM trametinib, percent specific lysis, chromium-51 release ADCC with human PBMCs, 50:1 E:T, TPC1 cells pretreated with 10 nM AST487 and percent specific lysis, chromium-51 release ADCC with human PBMCs, 50:1 E:T, TPC1 cells pretreated with DMSO values is patent US20210379046A1, “Methods of Treating Diseases Using Kinase Modulators” (Memorial Sloan Kettering Cancer Center, priority 2018, published 2021).

This assay concerns the target non-WT1-derived peptide expressed on TPC1 cells in complex with HLA-A*02:01 (human). Briefly: cell-based or functional assay.

Turning to ESK1 (antibody), the improvement of specific lysis, chromium-51 release ADCC, TPC1 cells pretreated with 100 nM trametinib came out at 10%; the percent specific lysis, chromium-51 release ADCC with human PBMCs, 50:1 E:T, TPC1 cells pretreated with 10 nM AST487 is 20%; the percent specific lysis, chromium-51 release ADCC with human PBMCs, 50:1 E:T, TPC1 cells pretreated with DMSO stood at 3%.
